Several values for one entry are separate records, joined by “and”; a condition that tells them apart may be missing. Identical values can stand only once.
B1: NPM(225-294) construct, C-terminal globular domain (domain or fragment)
chain: QESFKKQEKTPKTPKGPSSVEDIKAKMQASIEKGGSLPKVEAKFINYVKNCFRMTDQEAIQDLWQWRKSL
B2: NPM oligomerization domain NPM(1-130), His-tagged (domain or fragment)
chain: MEDSMDMDMSPLRPQNYLFGCELKADKDYHFKVDNDENEHQLSLRTVSLGAGAKDELHIVEAEAMNYEGSPIKVTLATLKMSVQPTVSLGGFEITPPVVLRLKCGSGPVHISGQHLVAVEEDAESEDEEE
B3: cytochrome c (Cc), recombinant, purified (natural protein)
chain: not shown
modifications: heme group

Key:
[1] = biological target: B3; experiment: ITC
[2] = biological target: T1, full-length nucleophosmin NPM(1-294), recombinant (UniProt P06748 1-294); experiment: ITC
SDS-PAGE = biological target: the molecule itself; experiment: SDS-PAGE
[3] = biological target: T1, full-length nucleophosmin NPM(1-294), …; experiment: negative-stain electron microscopy with 3D reconstruction
[4] = biological target: NPM oligomerization domain core NPM(9-122) (UniProt P06748 9-122); experiment: ITC
[5] = biological target: NPM(123-294) construct without the oligomerization domain (UniProt P06748 123-294); experiment: ITC

T1 sequence (P06748 whole entry): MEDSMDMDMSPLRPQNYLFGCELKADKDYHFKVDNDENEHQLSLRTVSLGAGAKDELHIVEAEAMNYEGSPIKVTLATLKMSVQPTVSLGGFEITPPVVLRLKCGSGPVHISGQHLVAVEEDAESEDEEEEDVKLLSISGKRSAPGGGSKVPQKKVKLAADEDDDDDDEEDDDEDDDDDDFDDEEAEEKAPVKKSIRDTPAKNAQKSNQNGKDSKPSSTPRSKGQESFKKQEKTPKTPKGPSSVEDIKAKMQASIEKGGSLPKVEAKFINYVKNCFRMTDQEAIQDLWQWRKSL

B1
Kd [1]: ~200 µM

MGRRFLVTVRIQRAGRPLQERVFLVKFVRSRRPRTAS [p19ARF(1-37) domain]
Kd [2]: 0.28 µM | stoichiometry N [2]: 5.6

B2
stoichiometry N (SDS-PAGE): 5

B3
stoichiometry N [3]: 1 Cc per NPM pentamer | fold decrease of affinity (by KD) upon addition of 0.1 M KCl [4]: 3 fold | stoichiometry N [4]: 2 Cc:NPM and 1 Cc:NPM | Kd [5]: 13 µM | fold decrease of affinity (by KD) upon addition of 0.1 M KCl [2]: 12 fold | stoichiometry N [2]: 1 Cc:NPM and 2 Cc:NPM

From doi:10.1101/2020.05.07.057075 (bioRxiv, 2020)
